Source: article PMC5737868

Experiments:
FUS-NLUC-FLAG = FUS-NLUC-FLAG (UniProt P35637 1-526, P525L); assay: NanoBRET
[1] = target: FUS-P525L-NLUC-HA / NLUC-FUS-P525L-HA (full-length) (UniProt P35637 1-526, P525L); assay: NanoBRET

Row | Binder | Kd (FUS-NLUC-FLAG) [nM] | Kd [1] [nM]
1 | CUGCUAGCCUCUGGAUUUGA (ssRNA) [PO-RNA JB-39] | 143 ± 38.2 | –
2 | CTGCTAGCCTCTGGATTTGA (XNA, full phosphorothioate, 2'-fluoro-modified gapmer (pattern not in the material)) [2'-F PS-ASO ION-766637] | – | 2.2 ± 0.2
